According to patent US20110008841A1 (Amgen, published 2011):
Positions count from the first letter of the chain named.

B1: AMH21/AML21 (antibody, IgG2, V domains shown)
VH: EVQLVESGGGSVQPGGSLRLSCAASGFTFSSYSMNWVRQAPGKGLEWVSIISSRSSIIHYADSVKGRFTISRDNAKNSLYLQMNSLRDEDTAVYYCARPKVGGGMDVWGQGTTVTVSS
VL: DIQMTQSPSSLSASVGDRVTITCRASQGISNYLAWYQQKPGKFPELLIYAASTLQSGVPSRFSGSGSGTDFTLTISSLQPEDVATYYCQKYNRAPFTFGPGTKVDIK
notes: Fully human mAb from IgG2 XenoMouse mice; also called AM-21; antibody Q
B2: AMH15/AML15 (antibody, V domains shown)
VH: QVQLVESGGGVVQPGRSLRLSCAASGFTFSSYGMQWVRQAPGKGLEWVAVIWYDGNKKYYADSVKGRFTISRDNSKNTLYLQMNSLRAEDTAVYYCARGRVRDYYYGMDVWGQGTTVTVSS
VL: EIVMTQSPATLSVSPGERVTLSCRASQSVSSNLAWFQQKPGQAPRPLIYDASTRAAGIPARFSGSGSGTDFTLTISSLQSEDFAVYYCQQYDNWPLTFGGGTKVEIK
notes: also called AM-15
B3: AMH14/AML14 (antibody, V domains shown)
VH: QVQLVQSGAEVKKPGASVKVSCKASGYTFTRYGISWVRQAPGQGLEWMGWISTYSGNTNYAQKLQGRVTMTTDTSTSTAYMELRSLRSDDTAVYYCARRQLYFDYWGQGTLVTVSS
VL: B2 VL with V19A, A56T, I58V
notes: Fully human mAb from IgG2 XenoMouse mice; Biotinylated in the Octet assay; also called AM-14; antibody K
B4: AMH11/AML11 (antibody, IgG2, V domains shown)
VH: QVQLVESGGGVVQPGRSLRLSCATSGITFSSYGMHWVRQAPGKGLEWVAVIWYDGSNKYYADSVKGRFTISRDNSKNTLYLQMNSLRAEDTAVYYCARDTKDYWGQGTLVTVSS
VL: EIVMTQSPATLSVSPGERATLSCRASQSVSSNLAWYQQKPGQAPRLLIYGASTRAAGIPARFSGGGSGTAFTLTISNLQSEDFAVYYCQHYINWPKWTFGQGTKVDIK
notes: Fully human mAb from IgG2 XenoMouse mice; also called AM-11; antibody A
B5: AMH22/AML22 (antibody, IgG2, V domains shown)
VH: B3 VH with T53A
VL: B2 VL
notes: Fully human mAb from IgG2 XenoMouse mice; also called AM-22; antibody I
B6: AMH5/AML5 (antibody, V domains shown)
VH: QVQLQESGPGLVKPSETLPLTCTVSGGSIRSYYWSWIRQPAGKGLEWIGRIYRSGNTIYNPSLKSRVTMSIDTSKNQFSLTLSSVTAADTAVYYCARENYSESSGLYYYYGMDVWGQGTTVTVSS
VL: DIQMTQSPSSLSASVGDRVTITCRASQGIRNDLGWYQQKPGKAPKRLIYAASSFQSGVPSRFSGSGSGTGFTLTISSLQPEDFATYYCLQHNSYPPTFGQGTKVEIK
notes: also called AM-5
B7: AMH1/AML1 (antibody, IgG2, V domains shown)
VH: QVQLQESGPGLVKPSETLSLTCTVSGGSISNYYWNWIRQSPGKGLEWIGDIYYSGSTNYNPSLKSRVTISVDTSKNQFSLKLSSVTTADTAVYYCARDGELANYYGSGSYQFYYYYGMDVWGQGTTVTVSS
VL: B6 VL with Q3L, F54L, G70E, Y94N, P96F, Q100P, E105D
notes: Fully human mAb from IgG2 XenoMouse mice; also called AM-1; antibody H
B8: Germline version A (antibody, V domains shown)
VH: B3 VH
VL: B2 VL with V19A, F36Y, P46L, A56T
B9: Germline version B (antibody, V domains shown)
VH: B3 VH
VL: B2 VL with V19A, F36Y, P46L, A56T, D70E
B10: AMH13/AML13 (antibody, IgG2, V domains shown)
VH: B2 VH
VL: DIVMTQTPLSLSVTPGQPASIACKSSQSLLHSDGKTYLYWYLQKPGQPPQLLIYEVSTRFSGVPDRFSGSGSGTDFTLKISRVEAEDVGVFYCMQSIQLPLTFGGGTKVEIK
notes: Fully human mAb from IgG2 XenoMouse mice; also called AM-13
B11: AMH17/AML17 (antibody, V domains shown)
VH: B3 VH with S17A, S25T, F29L, R31S, T53A, N59K, R99K, Y102V
VL: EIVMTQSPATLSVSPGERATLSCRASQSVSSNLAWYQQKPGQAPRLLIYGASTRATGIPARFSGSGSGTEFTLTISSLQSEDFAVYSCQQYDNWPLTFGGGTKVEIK
notes: Fully human mAb from IgG2 XenoMouse mice; also called AM-17; antibody N
B12: AMH16/AML16 (antibody, IgG2, V domains shown)
VH: B3 VH with R31S, T53A, S55N, N59K, A79V, R99K, Y102V
VL: EIVMTQSPATLSVSPGERATLSCRASQSISTSLAWYQQKPGQAPRLLIYGTSTRATGIPARFSGSGSGTEFTLTISSLQSEDFAVYFCQQYDIWPLTFGGGTKVEIK
notes: Fully human mAb from IgG2 XenoMouse mice; also called AM-16; antibody O
B13: AMH12/AML12 (antibody, IgG2, V domains shown)
VH: B3 VH with F29L, R31S, S55K, R99K, Y102V
VL: B12 VL with T31S, T51A, D82N, F87Y, I93N
notes: Fully human mAb from IgG2 XenoMouse mice; also called AM-12; antibody M

These binders were tested against T1, cynomolgus IL-17RA on cells (cynomolgus) (assay: FACS, biotin-huIL-17A on cyno IL-17RA+ CHO cells with non-clonal supernatant; lower = more inhibition).
T1 construct: whole, on cells; also called CHO-cynoIL-17RA; cyno IL-17RA+ CHO cells
Method: The anti-IL-17RA antibodies were characterized. Non-clonal hybridoma supernatants were prepared in volumes of 1-2 mls (the Ig concentrations were not determined for these supernatants).

MFI	Binder
6	B1
6	B2
10	B3

The binders below were run against T1, cynomolgus IL-17RA on cells (assay: FACS, biotin-huIL-17A on cyno IL-17RA+ cells with non-clonal supernatant; lower = more inhibition).

MFI	Binder
9	B4
18	B5
9	B6
11	B7

What follows are binders tested against Human IL-17RA full-length expressed on the surface of cells (human, UniProt Q96F46 33-866) (assay: cell-based or functional assay).

IC50, HFF bioassay (ligand not named on the sheet)	Binder
~107 nM	B8
~103 nM	B9

Target: T1, cynomolgus IL-17RA on cells
Experiment: FACS, biotin-huIL-17A on cyno IL-17RA+ CHO cells with non-clonal supernatant; lower = more inhibition
Remark: another data set of the same source
Method: Non-clonal hybridoma supernatants were prepared in volumes of 1-2 mls (the Ig concentrations were not determined for these supernatants). […] Anti-IL-17RA non-clonal hybridomas were selected for sub-cloning based on their performance in the CHO-IL-17RA FACS assay and HFF bioassay.

MFI	Binder
6	B10
8	B11
6	B12
6	B13
